This assay deals with T1, trigger factor (Escherichia coli), P0A850.
T1 chain: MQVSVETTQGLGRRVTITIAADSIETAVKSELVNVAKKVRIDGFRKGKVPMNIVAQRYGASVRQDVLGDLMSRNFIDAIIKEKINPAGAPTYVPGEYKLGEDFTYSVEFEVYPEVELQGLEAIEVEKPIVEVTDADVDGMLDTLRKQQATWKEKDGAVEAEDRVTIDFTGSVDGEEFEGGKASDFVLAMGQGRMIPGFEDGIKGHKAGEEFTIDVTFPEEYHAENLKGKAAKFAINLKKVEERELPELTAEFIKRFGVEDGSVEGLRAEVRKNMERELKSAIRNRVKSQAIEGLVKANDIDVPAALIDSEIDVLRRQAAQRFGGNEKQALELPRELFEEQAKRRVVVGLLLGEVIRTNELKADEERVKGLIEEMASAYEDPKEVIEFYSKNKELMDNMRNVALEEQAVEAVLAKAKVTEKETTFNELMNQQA
Nature of the assay: microfluidic diffusional sizing. Particulars: remark: other sources report otherwise.

B1: trigger factor, P0A850 (protein)
chain: MQVSVETTQGLGRRVTITIAADSIETAVKSELVNVAKKVRIDGFRKGKVPMNIVAQRYGASVRQDVLGDLMSRNFIDAIIKEKINPAGAPTYVPGEYKLGEDFTYSVEFEVYPEVELQGLEAIEVEKPIVEVTDADVDGMLDTLRKQQATWKEKDGAVEAEDRVTIDFTGSVDGEEFEGGKASDFVLAMGQGRMIPGFEDGIKGHKAGEEFTIDVTFPEEYHAENLKGKAAKFAINLKKVEERELPELTAEFIKRFGVEDGSVEGLRAEVRKNMERELKSAIRNRVKSQAIEGLVKANDIDVPAALIDSEIDVLRRQAAQRFGGNEKQALELPRELFEEQAKRRVVVGLLLGEVIRTNELKADEERVKGLIEEMASAYEDPKEVIEFYSKNKELMDNMRNVALEEQAVEAVLAKAKVTEKETTFNELMNQQA
As to B1, the equilibrium dissociation constant (Kd) (as a rule, the concentration at which binding is half-saturated) was found to be 1.5 µM.
